Experimental findings from PMC11878792 are described below.

The target in the data set is wt human lysyl-tRNA synthetase (h-LysRS, cytosolic) (human) (UniProt Q15046). The data set is described as follows: EMSA. Conditions: 1 mM Mg2+, Kd values printed only in Fig. 4C, EMSA: 20 mM HEPES pH 7.4, 60 mM NaCl, 10 mM KCl, 1 mM MgCl2, 400 uM DTT, 8% glycerol, room temperature 30 min, 37.5 nM tRNA, 0-5 uM LysRS, Hill fit, SYBR Gold …. (Mobility shift assays separate free from complexed probe on a gel.)
Chain of wt human lysyl-tRNA synthetase (h-LysRS, cytosolic) (human) (Q15046 whole entry): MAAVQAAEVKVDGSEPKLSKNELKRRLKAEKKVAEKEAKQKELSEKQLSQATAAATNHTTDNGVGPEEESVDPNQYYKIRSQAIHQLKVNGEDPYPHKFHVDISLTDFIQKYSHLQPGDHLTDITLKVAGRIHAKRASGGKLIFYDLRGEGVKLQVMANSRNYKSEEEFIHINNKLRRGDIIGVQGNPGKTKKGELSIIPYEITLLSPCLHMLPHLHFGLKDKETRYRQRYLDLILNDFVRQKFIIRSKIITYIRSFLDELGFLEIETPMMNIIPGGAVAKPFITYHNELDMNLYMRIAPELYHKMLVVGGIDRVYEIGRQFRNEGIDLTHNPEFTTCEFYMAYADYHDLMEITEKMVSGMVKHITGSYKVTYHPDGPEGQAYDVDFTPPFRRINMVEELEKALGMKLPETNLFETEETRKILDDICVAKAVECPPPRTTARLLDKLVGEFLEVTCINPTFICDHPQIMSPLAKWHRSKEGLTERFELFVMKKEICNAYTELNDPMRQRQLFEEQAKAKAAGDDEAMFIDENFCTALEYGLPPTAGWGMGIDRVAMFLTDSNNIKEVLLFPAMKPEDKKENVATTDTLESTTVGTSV

In turn, cellular fully modified tRNALys3 registered a binding signal (fold higher affinity than IVT tRNALys3) (native modifications, named: m2G10, D20, S34 (mcm5s2U), R37 (ms2t6A), D47, psi55, 9 types, 14 modified nucleotides modeled) of 2.5.
For the substance IVT unmodified tRNALys3, under “scale: fold lower affinity than modified tRNALys3”, the binding signal was found to be 2.5.
